Measured values: US20200283729A1
One block for each substance: values may come before it.

Assays:
CD19-BBZ CAR on T cells = assay: flow cytometry; T cells one day after CD19-BBZ CAR mRNA electroporation, stained with anti-mouse IgG Fab antibody
[1] = target: Recombinant mesothelin-extracellular domain protein on beads (UniProt Q13421); assay: cell-based or functional assay
[2] = target: Folate receptor alpha on cells (SKOV3, A1847, T47D, 293T, IOSE6) (human) (UniProt P15328); assay: cell-based or functional assay
[3] = target: biotin-labeled recombinant FRa protein (R&D Systems, Inc) (UniProt P15328); assay: flow cytometry; transduced primary human T cells stained with biotin-labeled recombinant FRA protein, then SA-PE; plotted against CD8
Sequence of biotin-labeled recombinant FRa protein (R&D Systems, Inc) (P15328 25-233 limits assumed): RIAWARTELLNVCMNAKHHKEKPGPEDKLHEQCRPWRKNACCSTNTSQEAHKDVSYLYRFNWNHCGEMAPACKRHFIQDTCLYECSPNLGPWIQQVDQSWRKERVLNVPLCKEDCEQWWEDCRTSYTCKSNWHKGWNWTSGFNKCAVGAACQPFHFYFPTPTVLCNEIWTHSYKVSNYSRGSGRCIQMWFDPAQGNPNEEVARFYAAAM

Sequence of Folate receptor alpha on cells (SKOV3, A1847, T47D, 293T, IOSE6) (human) (P15328 25-234, stated change not applied): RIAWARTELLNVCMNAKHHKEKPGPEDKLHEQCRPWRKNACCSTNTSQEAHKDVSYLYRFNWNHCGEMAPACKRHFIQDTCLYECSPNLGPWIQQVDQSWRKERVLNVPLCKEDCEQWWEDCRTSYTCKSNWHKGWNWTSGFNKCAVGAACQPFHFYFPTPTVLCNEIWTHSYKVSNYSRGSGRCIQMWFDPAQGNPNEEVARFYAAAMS
Sequence of Recombinant mesothelin-extracellular domain protein on beads (Q13421 other isoform, or with tags, fused parts or gaps limits assumed): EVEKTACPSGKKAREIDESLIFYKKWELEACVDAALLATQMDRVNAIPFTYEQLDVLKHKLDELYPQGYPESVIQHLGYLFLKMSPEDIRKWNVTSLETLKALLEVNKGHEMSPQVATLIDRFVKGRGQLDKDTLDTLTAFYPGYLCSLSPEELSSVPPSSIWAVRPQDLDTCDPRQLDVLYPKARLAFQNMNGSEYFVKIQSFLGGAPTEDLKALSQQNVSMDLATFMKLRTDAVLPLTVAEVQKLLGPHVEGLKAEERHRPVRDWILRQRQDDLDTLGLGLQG

- percent of cells in the CAR-positive gate (CD19-BBZ CAR on T cells): 98.5
Substance: anti-mouse IgG Fab antibody (detection reagent for the 19BBZ panel)

- % IFN-γ cytokine-producing cells after 6 hours with coated beads (flow cytometry) [1]: 7%
Substance: anti-mesothelin CAR (mesoCAR, SS1 BBZ) on wild-type mouse T cells

- surface CAR expression after exposure to SKOV3 cells [2]: 1 % of T cells
- percent of cells CD8+ and FRA CAR+ (upper right quadrant) [3]: 41.2%
- percent of cells CD8- and FRA CAR+ (lower right quadrant) [3]: 31.3%
Substance: MOv19-27z CAR on human T cells
